Source: paper PMC6856630

Experiments:
Experiment in all cases: BLI; Octet RED384; biotinylated neurexin LNS2 on streptavidin tips, Nxph in solution; 25°C, PBS pH 7.4, 50 nM TCEP, 1% BSA; global fit, double reference subtraction
[1] = target: Nrxn1 LNS2^SS2AB+ (I401Q), AviTag-His, biotinylated (BLI) (mouse)
[2] = target: Nrxn1 LNS2^SS2AB+, AviTag-His, biotinylated (BLI) (mouse)
[3] = target: Nrxn2 LNS2^SS2− (I401Q), AviTag-His, biotinylated (BLI) (mouse)
[4] = target: Nrxn2 LNS2^SS2−, AviTag-His, biotinylated (BLI) (mouse)
[5] = target: Nrxn3 LNS2^SS2− (I401Q), AviTag-His, biotinylated (BLI) (mouse)
[6] = target: Nrxn3 LNS2^SS2−, AviTag-His, biotinylated (BLI) (mouse)

Sequence of Nxph3-2XFLAG-His (rat neurexophilin-3, 50-252) (Q9Z2N5 50-252): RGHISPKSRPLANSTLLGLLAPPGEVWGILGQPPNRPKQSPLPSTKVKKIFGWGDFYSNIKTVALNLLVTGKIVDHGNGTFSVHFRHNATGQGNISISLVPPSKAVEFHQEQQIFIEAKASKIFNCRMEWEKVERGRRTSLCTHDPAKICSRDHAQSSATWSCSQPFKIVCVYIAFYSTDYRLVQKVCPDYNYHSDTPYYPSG
Sequence of Nxph1-2XFLAG-His (mature rat neurexophilin-1, 118-271, glycosylated) (Q63366 118-271): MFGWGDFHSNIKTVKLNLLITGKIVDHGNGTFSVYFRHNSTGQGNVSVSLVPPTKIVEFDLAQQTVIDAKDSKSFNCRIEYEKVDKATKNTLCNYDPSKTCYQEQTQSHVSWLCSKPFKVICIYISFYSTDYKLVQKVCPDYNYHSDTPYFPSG

Kd [1] [µM]	koff [1] [s⁻¹]	kon [1] [M⁻¹ s⁻¹]	Kd [2] [µM]	koff [2] [s⁻¹]	kon [2] [M⁻¹ s⁻¹]	Kd [3] [µM]	koff [3] [s⁻¹]	kon [3] [M⁻¹ s⁻¹]	Kd [4] [µM]	koff [4] [s⁻¹]	kon [4] [M⁻¹ s⁻¹]	Kd [5] [µM]	koff [5] [s⁻¹]	kon [5] [M⁻¹ s⁻¹]	Kd [6] [µM]	koff [6] [s⁻¹]	kon [6] [M⁻¹ s⁻¹]	Substance
0.499	0.00034	674	0.0433	9.4e-05	2170	39.3	0.0025	381	0.124	6.9e-05	554	1940	0.012	10.5	0.207	9.2e-05	444	Nxph1-2XFLAG-His (mature rat neurexophilin-1, 118-271, glycosylated) (from UniProt Q63366 118-271) (ligand)
–	–	–	–	–	–	1.31	0.00044	350	0.212	6.7e-05	302	3.5	0.00053	153	0.177	3.1e-05	178	Nxph3-2XFLAG-His (rat neurexophilin-3, 50-252) (from UniProt Q9Z2N5 50-252) (ligand)
